One assay has as its target GPIIbIIIa. The assay can be described thus: SPR (Langmuir binding analysis).
The next assay has as its target Peptide 1. The assay can be described thus: SPR (Langmuir binding analysis); GPIIbIIIa mimotope.
The target in the next assay is Peptide 2. The assay is described as above.

Broadly, the Kd is the equilibrium constant for the complex coming apart. Higher therefore signals lower affinity.

B1: Fibrinogen (ligand)
chain 1: ADSGEGDFLAEGGGVRGPRVVERHQSACKDSDWPFCSDEDWNYKCPSGCRMKGLIDEVNQDFTNRINKLKNSLFEYQKNNKDSHSLTTNIMEILRGDFSSANNRDNTYNRVSEDLRSRIEVLKRKVIEKVQHIQLLQKNVRAQLVDMKRLEVDIDIKIRSCRGSCSRALAREVDLKDYEDQQKQLEQVIAKDLLPSRDRQHLPLIKMKPVPDLVPGNFKSQLQKVPPEWKALTDMPQMRMELERPGGNEITRGGSTSYGTGSETESPRNPSSAGSWNSGSSGPGSTGNRNPGSSGTGGTATWKPGSSGPGSTGSWNSGSSGTGSTGNQNPGSPRPGSTGTWNPGSSERGSAGHWTSESSVSGSTGQWHSESGSFRPDSPGSGNARPNNPDWGTFEEVSGNVSPGTRREYHTEKLVTSKGDKELRTGKEKVTSGSTTTTRRSCSKTVTKTVIGPDGHKEVTKEVVTSEDGSDCPEAMDLGTLSGIGTLDGFRHRHPDEAAFFDTASTGKTFPGFFSPMLGEFVSETESRGSESGIFTNTKESSSHHPGIAEFPSRGKSSSYSKQFTSSTSYNRGDSTFESKSYKMADEAGSEADHEGTHSTKRGHAKSRPV
chain 2: QGVNDNEEGFFSARGHRPLDKKREEAPSLRPAPPPISGGGYRARPAKAAATQKKVERKAPDAGGCLHADPDLGVLCPTGCQLQEALLQQERPIRNSVDELNNNVEAVSQTSSSSFQYMYLLKDLWQKRQKQVKDNENVVNEYSSELEKHQLYIDETVNSNIPTNLRVLRSILENLRSKIQKLESDVSAQMEYCRTPCTVSCNIPVVSGKECEEIIRKGGETSEMYLIQPDSSVKPYRVYCDMNTENGGWTVIQNRQDGSVDFGRKWDPYKQGFGNVATNTDGKNYCGLPGEYWLGNDKISQLTRMGPTELLIEMEDWKGDKVKAHYGGFTVQNEANKYQISVNKYRGTAGNALMDGASQLMGENRTMTIHNGMFFSTYDRDNDGWLTSDPRKQCSKEDGGGWWYNRCHAANPNGRYYWGGQYTWDMAKHGTDDGVVWMNWKGSWYSMRKMSMKIRPFFPQQ
chain 3: YVATRDNCCILDERFGSYCPTTCGIADFLSTYQTKVDKDLQSLEDILHQVENKTSEVKQLIKAIQLTYNPDESSKPNMIDAATLKSRKMLEEIMKYEASILTHDSSIRYLQEIYNSNNQKIVNLKEKVAQLEAQCQEPCKDTVQIHDITGKDCQDIANKGAKQSGLYFIKPLKANQQFLVYCEIDGSGNGWTVFQKRLDGSVDFKKNWIQYKEGFGHLSPTGTTEFWLGNEKIHLISTQSAIPYALRVELEDWNGRTSTADYAMFKVGPEADKYRLTYAYFAGGDAGDAFDGFDFGDDPSDKFFTSHNGMQFSTWDNDNDKFEGNCAEQDGSGWWMNKCHAGHLNGVYYQGGTYSKASTPNGYDNGIIWATWKTRWYSMKKTTMKIIPFNRLTIGEGQQHHLGGAKQAGDV
In the case of B1, the Kd in the assay with GPIIbIIIa was found to be 10.3 nM; with Peptide 1 it was 12500 nM; with Peptide 2, 334 nM.

These data come from patent publication US20170095421A1 (published 2017).
